The values that follow come from paper doi:10.1101/2021.02.22.432310, “Tetrameric UvrD helicase is located at the E. coli replisome due to frequent replication blocks” (bioRxiv, 2021).

The target of this assay is T1, Biotinylated UvrD (E. coli, UniProt P03018 1-720, biotin).
T1 construct: UvrD helicase (DNA helicase II), E. coli; also called E. coli UvrD
T1 sequence (looked up): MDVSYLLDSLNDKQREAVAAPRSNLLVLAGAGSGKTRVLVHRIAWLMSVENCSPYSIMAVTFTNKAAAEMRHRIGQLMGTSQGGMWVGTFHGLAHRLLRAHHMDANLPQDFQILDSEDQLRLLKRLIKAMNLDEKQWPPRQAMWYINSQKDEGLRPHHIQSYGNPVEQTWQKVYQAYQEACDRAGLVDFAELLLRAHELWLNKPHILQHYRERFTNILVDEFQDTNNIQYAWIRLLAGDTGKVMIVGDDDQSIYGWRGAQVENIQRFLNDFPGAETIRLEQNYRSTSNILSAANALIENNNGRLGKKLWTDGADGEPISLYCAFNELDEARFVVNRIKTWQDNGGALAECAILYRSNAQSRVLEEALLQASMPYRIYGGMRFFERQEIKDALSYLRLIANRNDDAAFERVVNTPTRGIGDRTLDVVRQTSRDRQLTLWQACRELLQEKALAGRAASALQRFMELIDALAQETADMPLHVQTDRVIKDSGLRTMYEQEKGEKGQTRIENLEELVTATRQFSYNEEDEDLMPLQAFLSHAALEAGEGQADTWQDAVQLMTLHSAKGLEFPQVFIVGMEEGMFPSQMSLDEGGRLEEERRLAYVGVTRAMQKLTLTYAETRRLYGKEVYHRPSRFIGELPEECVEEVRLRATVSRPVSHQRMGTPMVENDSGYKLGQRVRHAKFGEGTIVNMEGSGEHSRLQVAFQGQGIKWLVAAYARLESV
The assay can be described thus: SPR; BIAcore T200, 25°C; biotinylated UvrD or Rep immobilised on streptavidin-coated SA chips; Tau or UvrB passed over, ca. 200-4000 nM, 20 µl/min; 10 mM HEPES pH 7.4, 3 mM EDTA, 150 mM NaCl, 10 mM MgCl2, 0.05% Tween 20; single sites binding model. The conditions noted are these: both partners purified. For orientation: SPR reads the build-up and loss of mass on a sensor chip optically.

B1: UvrB (natural protein, UniProt P0A8F8 1-673, looked up)
chain: MSKPFKLNSAFKPSGDQPEAIRRLEEGLEDGLAHQTLLGVTGSGKTFTIANVIADLQRPTMVLAPNKTLAAQLYGEMKEFFPENAVEYFVSYYDYYQPEAYVPSSDTFIEKDASVNEHIEQMRLSATKAMLERRDVVVVASVSAIYGLGDPDLYLKMMLHLTVGMIIDQRAILRRLAELQYARNDQAFQRGTFRVRGEVIDIFPAESDDIALRVELFDEEVERLSLFDPLTGQIVSTIPRFTIYPKTHYVTPRERIVQAMEEIKEELAARRKVLLENNKLLEEQRLTQRTQFDLEMMNELGYCSGIENYSRFLSGRGPGEPPPTLFDYLPADGLLVVDESHVTIPQIGGMYRGDRARKETLVEYGFRLPSALDNRPLKFEEFEALAPQTIYVSATPGNYELEKSGGDVVDQVVRPTGLLDPIIEVRPVATQVDDLLSEIRQRAAINERVLVTTLTKRMAEDLTEYLEEHGERVRYLHSDIDTVERMEIIRDLRLGEFDVLVGINLLREGLDMPEVSLVAILDADKEGFLRSERSLIQTIGRAARNVNGKAILYGDKITPSMAKAIGETERRREKQQKYNEEHGITPQGLNKKVVDILALGQNIAKTKAKGRGKSRPIVEPDNVPMDMSPKALQQKIHELEGLMMQHAQNLEFEEAAQIRDQLHQLRELFIAAS
By Kd is commonly meant a measure of binding affinity in units of concentration. A lower Kd goes with a tighter complex. For the molecule B1, binding was put at a Kd of 231 nM.
